Assay results reported in US12099068B2, “Biomarkers for graft-versus-host disease” (Incyte Corporation, priority 2018, dated 2024).

Tested on: plasma proteins
Test: Plasma proteins modulated between baseline and day 28 in responders (CR, VGPR, PR; n = 19), Example 6 (Table 13)
Assay type: in vivo, human
Details: plasma protein (OLINK NPX); responders (CR, VGPR, PR; n = 19); itacitinib 200 mg or 300 mg QD with corticosteroids; day 28 vs baseline
How it was run: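 Plasma at baseline/screening and day 28 profiled for >1000 proteins by OLINK proximity extension assay, reported as NPX (log2). Steroid-naive and steroid-refractory patients pooled. Paired and unpaired t tests, ANOVA and Pearson correlation applied; significance at P<0.05.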

Row | Molecule | Fold Change, Decreased Expression from Baseline to Day 28 | Fold Change, Increased Expression from Baseline to Day 28
1 | IL-6RA (protein, UniProt P08887 20-468, looked up) Interleukin-6 receptor …: LAPRRCPAQEVARGVLTSLPGDSVTLTCPGVEPEDNATVHWVLRKPAAGSHPSRWAGMGRRLLLRSVQLHDSGNYSCYRAGRPAGTVHLLVDVPPEEPQLSCFRKSPLSNVVCEWGPRSTPSLTTKAVLLVRKFQNSPAEDFQEPCQYSQESQKFSCQLAVPEGDSSFYIVSMCVASSVGSKFSKTQTFQGCGILQPDPPANITVTAVARNPRWLSVTWQDPHSWNSSFYRLRFELRYRAERSKTFTTWMVKDLQHHCVIHDAWSGLRHVVQLRAQEEFGQGEWSEWSPEAMGTPWTESRSPPAENEVSTPMQALTTNKDDDNILFRDSANATSLPVQDSSSVPLPTFLVAGGSLAFGTLLCIAIVLRFKKTWKLRALKEGKTSMHPPYSLGQLVPERPRPTPVLVPLISPPVSPSSLGSDNTSSHNRPDARDPRSPYDISNTDYFFPR | −1.1901 | –
2 | ATG4A (protein, UniProt Q8WYN0 1-398, looked up) Cysteine protease ATG4A: MESVLSKYEDQITIFTDYLEEYPDTDELVWILGKQHLLKTEKSKLLSDISARLWFTYRRKFSPIGGTGPSSDAGWGCMLRCGQMMLAQALICRHLGRDWSWEKQKEQPKEYQRILQCFLDRKDCCYSIHQMAQMGVGEGKSIGEWFGPNTVAQVLKKLALFDEWNSLAVYVSMDNTVVIEDIKKMCRVLPLSADTAGDRPPDSLTASNQSKGTSAYCSAWKPLLLIVPLRLGINQINPVYVDAFKECFKMPQSLGALGGKPNNAYYFIGFLGDELIFLDPHTTQTFVDTEENGTVNDQTFHCLQSPQRMNILNLDPSVALGFFCKEEKDFDNWCSLVQKEILKENLRMFELVQKHPSHWPPFVPPAKPEVTTTGAEFIDSTEQLEEFDLEEDFEILSV | −1.3651 | –
3 | COCH (protein, UniProt O43405 25-550, looked up) Cochlin: EGAAPIAITCFTRGLDIRKEKADVLCPGGCPLEEFSVYGNIVYASVSSICGAAVHRGVISNSGGPVRVYSLPGRENYSSVDANGIQSQMLSRWSASFTVTKGKSSTQEATGQAVSTAHPPTGKRLKKTPEKKTGNKDCKADIAFLIDGSFNIGQRRFNLQKNFVGKVALMLGIGTEGPHVGLVQASEHPKIEFYLKNFTSAKDVLFAIKEVGFRGGNSNTGKALKHTAQKFFTVDAGVRKGIPKVVVVFIDGWPSDDIEEAGIVAREFGVNVFIVSVAKPIPEELGMVQDVTFVDKAVCRNNGFFSYHMPNWFGTTKYVKPLVQKLCTHEQMMCSKTCYNSVNIAFLIDGSSSVGDSNFRLMLEFVSNIAKTFEISDIGAKIAAVQFTYDQRTEFSFTDYSTKENVLAVIRNIRYMSGGTATGDAISFTVRNVFGPIRESPNKNFLVIVTDGQSYDDVQGPAAAAHDAGITIFSVGVAWAPLDDLKDMASKPKESHAFFTREFTGLEPIVSDVIRGICRDFLESQQ | −1.22 | –
4 | CDIC (protein, UniProt P29017 18-333, looked up) T-cell surface glycoprotein …: NADASQEHVSFHVIQIFSFVNQSWARGQGSGWLDELQTHGWDSESGTIIFLHNWSKGNFSNEELSDLELLFRFYLFGLTREIQDHASQDYSKYPFEVQVKAGCELHSGKSPEGFFQVAFNGLDLLSFQNTTWVPSPGCGSLAQSVCHLLNHQYEGVTETVYNLIRSTCPRFLLGLLDAGKMYVHRQVRPEAWLSSRPSLGSGQLLLVCHASGFYPKPVWVTWMRNEQEQLGTKHGDILPNADGTWYLQVILEVASEEPAGLSCRVRHSSLGGQDIILYWGHHFSMNWIALVVIVPLVILIVLVLWFKKHCSYQDIL | −1.5651 | –
5 | IGFBP-2 (protein, UniProt P18065 36-325, looked up) Insulin-like growth …: AEVLFRCPPCTPERLAACGPPPVAPPAAVAAVAGGARMPCAELVREPGCGCCSVCARLEGEACGVYTPRCGQGLRCYPHPGSELPLQALVMGEGTCEKRRDAEYGASPEQVADNGDDHSEGGLVENHVDSTMNMLGGGGSAGRKPLKSGMKELAVFREKVTEQHRQMGKGGKHHLGLEEPKKLRPPPARTPCQQELDQVLERISTMRLPDERGPLEHLYSLHIPNCDKHGLYNLKQCKMSLNGQRGECWCVNPNTGKLIQGAPTIRGDPECHLFYNEQQEARGVHTQRMQ | −1.2058 | –
6 | Gal-4 (protein, UniProt P56470 1-323, looked up) Galectin-4: MAYVPAPGYQPTYNPTLPYYQPIPGGLNVGMSVYIQGVASEHMKRFFVNFVVGQDPGSDVAFHFNPRFDGWDKVVFNTLQGGKWGSEERKRSMPFKKGAAFELVFIVLAEHYKVVVNGNPFYEYGHRLPLQMVTHLQVDGDLQLQSINFIGGQPLRPQGPPMMPPYPGPGHCHQQLNSLPTMEGPPTFNPPVPYFGRLQGGLTARRTIIIKGYVPPTGKSFAINFKVGSSGDIALHINPRMGNGTVVRNSLLNGSWGSEEKKITHNPFGPGQFFDLSIRCGLDRFKVYANGQHLFDFAHRLSAFQRVDTLEIQGDVTLSYVQI | – | 1.4274
7 | LAMP3 (protein, UniProt Q9UQV4 28-416, looked up) Lysosome-associated membrane …: KAFPETRDYSQPTAAATVQDIKKPVQQPAKQAPHQTLAARFMDGHITFQTAATVKIPTTTPATTKNTATTSPITYTLVTTQATPNNSHTAPPVTEVTVGPSLAPYSLPPTITPPAHTTGTSSSTVSHTTGNTTQPSNQTTLPATLSIALHKSTTGQKPVQPTHAPGTTAAAHNTTRTAAPASTVPGPTLAPQPSSVKTGIYQVLNGSRLCIKAEMGIQLIVQDKESVFSPRRYFNIDPNATQASGNCGTRKSNLLLNFQGGFVNLTFTKDEESYYISEVGAYLTVSDPETIYQGIKHAVVMFQTAVGHSFKCVSEQSLQLSAHLQVKTTDVQLQAFDFEDDHFGNVDECSSDYTIVLPVIGAIVVGLCLMGMGVYKIRLRCQSSGYQRI | −1.7705 | –
8 | GSAP (protein, UniProt A4D1B5 1-854, looked up) Gamma-secretase-activating …: MALRLVADFDLGKDVLPWLRAQRAVSEASGAGSGGADVLENDYESLHVLNVERNGNIIYTYKDDKGNVVFGLYDCQTRQNELLYTFEKDLQVFSCSVNSERTLLAASLVQSTKEGKRNELQPGSKCLTLLVEIHPVNNVKVLKAVDSYIWVQFLYPHIESHPLPENHLLLISEEKYIEQFRIHVAQEDGNRVVIKNSGHLPRDRIAEDFVWAQWDMSEQRLYYIDLKKSRSILKCIQFYADESYNLMFEVPLDISLSNSGFKLVNFGCDYHQYRDKFSKHLTLCVFTNHTGSLCVCYSPKCASWGQITYSVFYIHKGHSKTFTTSLENVGSHMTKGITFLNLDYYVAVYLPGHFFHLLNVQHPDLICHNLFLTGNNEMIDMLPHCPLQSLSGSLVLDCCSGKLYRALLSQSSLLQLLQNTCLDCEKMAALHCALYCGQGAQFLEAQIIQWISENVSACHSFDLIQEFIIASSYWSVYSETSNMDKLLPHSSVLTWNTEIPGITLVTEDIALPLMKVLSFKGYWEKLNSNLEYVKYAKPHFHYNNSVVRREWHNLISEEKTGKRRSAAYVRNILDNAVKVISNLEARNLGPRLTPLLQEEDSHQRLLMGLMVSELKDHFLRHLQGVEKKKIEQMVLDYISKLLDLICHIVETNWRKHNLHSWVLHFNSRGSAAEFAVFHIMTRILEATNSLFLPLPPGFHTLHTILGVQCLPLHNLLHCIDSGVLLLTETAVIRLMKDLDNTEKNEKLKFSIIVRLPPLIGQKICRLWDHPMSSNIISRNHVTRLLQNYKKQPRNSMINKSSFSVEFLPLNYFIEILTDIESSNQALYPFEGHDNVDAEFVEEAALKHTAMLLGL | −1.4153 | –
9 | PILRB (protein, UniProt Q9UKJ0 20-227, looked up) Paired immunoglobulin-like …: QPGGSTGSGPSYLYGVTQPKHLSASMGGSVEIPFSFYYPWELAIVPNVRISWRRGHFHGQSFYSTRPPSIHKDYVNRLFLNWTEGQESGFLRISNLRKEDQSVYFCRVELDTRRSGRQQLQSIKGTKLTITQAVTTTTTWRPSSTTTIAGLRVTESKGHSESWHLSLDTAIRVALAVAVLKTVILGLLCLLLLWWRRRKGSRAPSSDF | −1.3019 | –
10 | CLEC6A (protein, UniProt Q6EIG7 1-209, looked up) C-type lectin domain family 6 …: MMQEQQPQSTEKRGWLSLRLWSVAGISIALLSACFIVSCVVTYHFTYGETGKRLSELHSYHSSLTCFSEGTKVPAWGCCPASWKSFGSSCYFISSEEKVWSKSEQNCVEMGAHLVVFNTEAEQNFIVQQLNESFSYFLGLSDPQGNNNWQWIDKTPYEKNVRFWHLGEPNHSAEQCASIVFWKPTGWGWNDVICETRRNSICEMNKIYL | −1.3248 | –
11 | TDRKH (protein, UniProt Q9Y2W6 1-561, looked up) Tudor and KH …: MSTERTSWTSLSTIQKIALGLGIPASATVAYILYRRYRESREERLTFVGEDDIEIEMRVPQEAVKLIIGRQGANIKQLRKQTGARIDVDTEDVGDERVLLISGFPVQVCKAKAAIHQILTENTPVSEQLSVPQRSVGRIIGRGGETIRSICKASGAKITCDKESEGTLLLSRLIKISGTQKEVAAAKHLILEKVSEDEELRKRIAHSAETRVPRKQPISVRREDMTEPGGAGEPALWKNTSSSMEPTAPLVTPPPKGGGDMAVVVSKEGSWEKPSDDSFQKSEAQAIPEMPMFEIPSPDFSFHADEYLEVYVSASEHPNHFWIQIVGSRSLQLDKLVNEMTQHYENSVPEDLTVHVGDIVAAPLPTNGSWYRARVLGTLENGNLDLYFVDFGDNGDCPLKDLRALRSDFLSLPFQAIECSLARIAPSGDQWEEEALDEFDRLTHCADWKPLVAKISSYVQTGISTWPKIYLYDTSNGKKLDIGLELVHKGYAIELPEDIEENRAVPDMLKDMATETDASLSTLLTETKKSSGEITHTLSCLSLSEAASMSGDDNLEDDYLL | −1.2785 | –
12 | FABP4 (protein, UniProt P15090 2-132, looked up) Fatty acid-binding protein, …: CDAFVGTWKLVSSENFDDYMKEVGVGFATRKVAGMAKPNMIISVNGDVITIKSESTFKNTEISFILGQEFDEVTADDRKVKSTITLDGGVLVHVQKWDGKSTTIKRKREDDKLVVECVMKGVTSTRVYERA | – | 1.6926
13 | GM-CSF-R-alpha (protein, UniProt P15509 23-400, looked up) Granulocyte-macrophage …: EKSDLRTVAPASSLNVRFDSRTMNLSWDCQENTTFSKCFLTDKKNRVVEPRLSNNECSCTFREICLHEGVTFEVHVNTSQRGFQQKLLYPNSGREGTAAQNFSCFIYNADLMNCTWARGPTAPRDVQYFLYIRNSKRRREIRCPYYIQDSGTHVGCHLDNLSGLTSRNYFLVNGTSREIGIQFFDSLLDTKKIERFNPPSNVTVRCNTTHCLVRWKQPRTYQKLSYLDFQYQLDVHRKNTQPGTENLLINVSGDLENRYNFPSSEPRAKHSVKIRAADVRILNWSSWSEAIEFGSDDGNLGSVYIYVLLIVGTLVCGIVLGFLFKRFLRIQRLFPPVPQIKDKLNDNHEVEDEIIWEEFTPEEGKGYREEVLTVKEIT | −1.4489 | –
14 | CD40-L (protein, UniProt P29965 113-261, looked up) CD40 ligand, soluble form: MQKGDQNPQIAAHVISEASSKTTSVLQWAEKGYYTMSNNLVTLENGKQLTVKRQGLYYIYAQVTFCSNREASSQAPFIASLCLKSPGRFERILLRAANTHSSAKPCGQQSIHLGGVFELQPGASVFVNVTDPSQVSHGTGFTSFGLLKL | −1.5868 | –
